Target: polymerization-deficient p62 PB1 domain D69A/D73A (human) (UniProt Q13501)
Assay: ITC

Kd: 12.6 nM
Substance: human NBR1 PB1 domain, residues 1-85 (ITC) (from UniProt Q14596 1-85) (domain or fragment)

From article doi:10.1101/671792
